{"source": "paper PMC9713952", "biological_target": "T1, MBP-RAD51AP1-His6 WT (UniProt Q96B01 1-352)", "T1 sequence": "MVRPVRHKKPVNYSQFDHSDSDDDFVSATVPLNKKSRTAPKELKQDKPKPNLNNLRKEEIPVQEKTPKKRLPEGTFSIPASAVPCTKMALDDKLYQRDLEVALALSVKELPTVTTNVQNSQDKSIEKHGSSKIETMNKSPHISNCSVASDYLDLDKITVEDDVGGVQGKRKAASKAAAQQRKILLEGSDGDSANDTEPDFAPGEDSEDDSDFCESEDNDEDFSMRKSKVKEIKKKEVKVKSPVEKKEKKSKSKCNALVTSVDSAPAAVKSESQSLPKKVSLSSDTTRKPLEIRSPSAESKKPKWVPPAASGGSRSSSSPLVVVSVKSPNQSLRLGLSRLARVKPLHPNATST", "assay": "EMSA", "data": [{"binder": "TERRA R-loop (mixed) DNA 1: CATTGCATATTTAAAACATGTTGGATCTCAATTTCTATTTTATTTTTATTTTTTATTTCTTTATTTTACCATGAATTCAAATGACCTCTTATCAAGTGAC DNA 2: GTCACTTGATAAGAGGTCATTTGAATTCATCCTAACCCTAACCCTAACCCTAACCCTAACCCTAACCCTAAGAGATCCAACATGTTTTAAATATGCAATG RNA: UUAGGGUUAGGGUUAGGGUUAGGGUUAGGGUUAGGGUUAG", "values": [{"measurement": "binding result", "value": "binds"}]}]}
